Assay: yeast display, Sf9 membrane polyspecificity reagent, FACS + sequencing; frameworks hold sequencing errors
Method in brief: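 In a synthetic yeast display library (Saccharomyces cerevisiae BJ5465), nanobody expression was induced with galactose for 36–48 hours. FACS gates were set low and high (top ~1%) using anti-HA fluorescence for expression and streptavidin fluorescence for binding of the Sf9 membrane reagent. Each polyreactivity label is drawn from the gate of origin.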

Sequence	polyreactivity (PSR sort gate)
QVQLVESGGGLVQAVGSLRLSCAASGSTFPRYAMRWYRQAPGKERELVAAISRSGGSTYYADSVKGRFTISRDNATNTVYLQMNSLKPEDTAVYYCAARDDRGSYKYDYWRQGTQVTVSS	high polyreactivity
QVQLVESGGGLVQAVGSLRLSCAASGSTFPYYTMGWYRQAPGKERELVAAITASGGSTYYADSVKGRVTISRDNAKNTVYLQMNSLKPEDTAVYYCAATCLNHVRKSRGYDYWGQGTQVTVSS	high polyreactivity
QVQLVESGGGLVQAVGSLRLSCAASGSTFYPYAMGWYRQSPGKERELVAAISISGGITYYADSVKVRFTISRDNAKNTVYLQMNSLKPEDTAVYYCAAEYLAVSGYWYDYWGQGTQVTVSS	high polyreactivity
QVQLVESGGGLVQAVGSLRLSCADSGTFPYYAMGRYRQAPWKERELVAAITRSGTRTYYADSVKGRFTISRDNAKNTGYLQMKSLKPEDTAVYYCAARQTGFSSQFRGYYSWGQGTQVTVSS	high polyreactivity
QVQLVESGGGLVQAVGSLRLSSAASGSIFYVYAMGWYRQAPGKERELVAAMTNYADSVKGRFTISRDNAKNTVYLQMNSLKPEDTAVYYCAADWWRVEMDYWGQGTQVTVSS	low polyreactivity
QVQLVESGGGLVQAVGSLRLTCAASGSIFGHYAMGLSRHAPGKDRELVAAISASTGRTYNADSVKGRFTISRDNAKNPVYLQMNSLKPEDTAFYYCAVRVHWTIWDYYYWGQGTQVTVSS	high polyreactivity
QVQLVESGGGLVQAVSSLRLSCAASGYIFDRNAMGWYRRAPGKERELVAAITKRGGITYYADSVKGRFTISRDNAKNTVYLQMNSLKPEDTAVYYCAAKTLYNSGTQDRAMGYWGQGTQVTVSS	high polyreactivity
QVQLVESGGGLVQEGGSLLLSCDASGFTFAVYAMGWYRQAPGKERELVAAITTSGTRTYNADSVKGRFTISRDNAKNTVYLQMNSLKPEDTAVYYCAAVVFRQWPEFDYWGQGTQVTVSS	low polyreactivity
QVQLVESGGGLVQEGGSLLLSFAASGSTFGYYAMGWYRQAPGKEREFVAAISDSGDGTYYADSVKGRFTISRDNEKNTVYLQMNSLKQEDTAVYYCAAEAPYYFGWWYGYKYDSWGQGTQVTVSW	high polyreactivity
QVQLVESGGGLVQEGGSLRLICAASGFTFGAHGMGWYRQAPGKERELVAANNSRGSRTYYADSGKGRFTISRDNPKNTVFFQMNSLQPDDTAVYYCAADYYAFKFGRFDYWGHGTQVTVSS	high polyreactivity
QVQLVESGGGLVQEGGSLRLICAASGRIFRYYAMGWYRQAPGKERELVASITYSGGRTNYADSVKGRFTISRDNAKNTVYVQMNSLKPEDTAVYYCNAAYVYYYPHYRYAPTAVDYDYWGQGTQVTVSS	low polyreactivity
QVQLVESGGGLVQEGGSLRLRCAASGRTFPINAMGWYRQAPGKERELVASIRWTDGTTYYADSVKGRFTISRDTAKNTVYLQMNSLKPEDTAVYYCAADAEGSASKYVYWGQGTQVTVSS	low polyreactivity
QVQLVESGGGLVQEGGSLRLSCAAAGIIFIAYAMGWYREAPGKERELVADISIGGSTNYADSVKGRFTISRDNAKNTVYLQMTSQKPEDTAVYYCNAGGGFYGSTVEHDYWGQGTQVSVSS	low polyreactivity
QVQLVESGGGLVQEGGSLRLSCAASGFIFYRYTKGWYRQAPGKERELVAGISSRGTRTYYADSVKGRFTISRDNAKNTVYLQMNSLKPEDNAVYYCAKVDGSKRYNYWGQGTQVTVSS	high polyreactivity
QVQLVESGGGLVQEGGSLRLSCAASGFTFDDYAMGWYRQAPGKERELVATITNSDSSTYYADSVKGRFTISRDNEKNTFYLQMNSLQPVDTAVYYCAADGRYAYGYNHWGHGTQVTVSS	low polyreactivity
QVQLVESGGGLVQEGGSLRLSCAASGFTYYHYAMGWYRHAPGKERELVAAITWSGGDTYYADSVKGRFTISRDNAKNTVYLQMNSLKPDDTAVYYCNADDPPGARYFDSFDYRGDYWGQGTQVTVSS	low polyreactivity
QVQLVESGGGLVQEGGSLRLSCAASGIIFGPYVMGWYRQAPGKERELVATISRTGDTYYADSVKGRFTISRDNAKNTVYLQMNSVKPEDTAVYYCNTQDHGYGFTMDYWGQGTQVTVSS	low polyreactivity
QVQLVESGGGLVQEGGSLRLSCAASGIIHYYYVMGWYRPAPGKERELVAAINRSGTATYYADSVKGRFTISRDNAKNTVYFQMNSLIPEDTAVYYCAADVRWRYYWGQGTQVTVSS	high polyreactivity
QVQLVESGGGLVQEGGSLRLSCAASGITFGRYAMGWYRQAPGKERELVAAITTRGGSTYYADSVKGRFTISRDNAKNTVYLQMNSLKPEDTAVYYCAARVPGVSVKNDYCGQGTQVTVSS	high polyreactivity
QVQLVESGGGLVQEGGSLRLSCAASGITFSYYAMGWYREAPGKEREWVATIRSSGGSTYYADSVKGRFTISRENAKNTVYLQMNSQKPEDTAVYYCAVRLWFDYNYWGQGTQVTVSS	low polyreactivity
QVQLVESGGGLVQEGGSLRLSCAASGNIFRAYGMGWYRQAPGKERELVAAIDTTGGRTYYADSVKGRFTISRDNAKNTVYLQMNSLKPEDTAVYYCAVRAPAYPYYRGFDYWGQGTQVTVSS	low polyreactivity
QVQLVESGGGLVQEGGSLRLSCAASGNIFRINGMGWYRQAPGKERELVATITGNGGSTYYAASVKGRFTISRDNAQNTVYLQMNSLKPEDTAVFYCAAQTTVYIYDYWGQGTQVTVSS	low polyreactivity

Sequence	polyreactivity (PSR sort gate)
QVQLVESGGGLVQEGGSLRLSCAASGRIFVGNAMGWYRQAPGKERELVASMTRGRRTNYADSVKGRFTISRDNAKNTVFFQMNSLKPVDTAVYYCNAPGVTRAYLVGYDYWGQGTQVTVSS	low polyreactivity
QVQLVESGGGLVQEGGSLRLSCAASGRIFYFYAMGRYRQAPGKERELVADIDWSGDSTYYADSVKGRFTISRDNAKITVYLQMNSLIPEDTAVYYCNAAYYYYSTSYTYDYWGQGTQVTVSS	low polyreactivity
QVQLVESGGGLVQEGGSLRLSCAASGRILSPNAMGWYRQAPGKERELVATITRSGGSTYYADSVKGRFTISRDNAKNTVYLQMNSLKPEDTAVYYCAKLHTYPWIHDYWGQGTQVTVSS	low polyreactivity
QVQLVESGGGLVQEGGSLRLSCAASGSIFAKYAMGWYSQAPGKEREFVAGISYSGNTYYADSVKGRFTISRDNAKNTVYLQMNSLKPEDTAVYYCAADGYLQTRRFDYWGQGTQVTVSS	high polyreactivity
QVQLVESGGGLVQEGGSLRLSCAASGSIFGRNVMGWYRQAPGKERELVAAISEGGGRTYYADSVKGRFTISRDNAKNTVYLQMNSLKPEVTAVYYCAAAYFSSGYKYYYWGQGTQVTVSS	high polyreactivity
QVQLVESGGGLVQEGGSLRLSCAASGSIFKEYAMGWSRQAPGKERELVAAISTSGDITYYSDSVKGRFTISRDNAKNTVYLQMNSLKPEDTGVYYCAANYSLLRQYNRLDYWGQGTQLTVSS	low polyreactivity
QVQLVESGGGLVQEGGSLRLSCAASGSIFNTYAMGRYRQAPGKEREMVAGITKTGSRTYYADSVKGRFTISRDNAKNTVYLQMNSLKPEDTAVYYCNARIWPRSYRYDYWGQGTQVTVSS	high polyreactivity
QVQLVESGGGLVQEGGSLRLSCAASGSTFPLYTMGWYRQAPGKERELVATISRGGSTYYADSVKGRFTISRDNAKNTVYLQMNSLKPEDTAVYYCAARPFGFKFDYWGQGTQVTVSA	low polyreactivity
QVQLVESGGGLVQEGGSLRLSCAASGSTFSNYMGWYRQAPGKERELVAAITQSGVSTYYADSVKGRFTISRDNAKNTVYLQMNSLKPEDTAVYYCYNYLSGYDYWGQGTQVTVSS	low polyreactivity
QVQLVESGGGLVQEGGSLRLSCAASGSTFYNYAMGLYRQAPGKERELVAAITSSGGSTYYADSVKGRFTISRDYAKNTVYLQMNSLKPEDTAVYYCNADDGYGQVHSISNYEMDYWGQGTQVTVSS	low polyreactivity
QVQLVESGGGLVQEGGSLRLSCAASGSTFYYYAMGWYRQAPGKERELVAAISSSGSTYYADSVKGRFTISRDNAKNTVYLQMISLNPEDTAVFYCNADSRTAGLNSEYDYWGQGTQVTVSS	low polyreactivity
QVQLVESGGGLVQEGGSLRLSCAASGSTSRKYTMGWYRQAPGKERELVATISWSGGSTNYADSVKGRFTISRDNAKNNVYLQMNSLIPEDTAVYYCNAYVSPRYRGTRYYYWGQVTQVTVSS	high polyreactivity
QVQLVESGGGLVQEGGSLRLSCAASGYIFVRYAMGWYRQAPGKEREFVAAISSSGGSTRYADSVKGRFTISRDNAKYTVYLQMHRLKPEDTPVYYCAATSVARNGSPMYYWGQGTLVTVSS	high polyreactivity
QVQLVESGGGLVQEGGSLRLSCASSGFIFEDYAKGWYRQARGKERELVAAMRSNDDSTYYADSVKGRFTISRDNAKNSVYFQMNSLKPEDTAVYYCAAATYGTRLRRYYYWGQGSQVTVSS	high polyreactivity
QVQLVESGGGLVQEGGSLRLSCASSGSTFRYNVMGWYRQAPGKERELVAAITRRGSRTYYADSVKGRFTISRDNAKNTVYLHMNSLKPADTAVYDCNKNSLSVPANDDYWGQGTQVTVSS	high polyreactivity
QVQLVESGGGLVQEGGSLSLICAASGRIYTPYAMGSYRQAPGKERELVAVIRDGSTYYADSVKGRFTISRDNAKNTVYLQMNSLKPADTAVYDCRYDIWVWWSGAYDYWGQCTQVTVSS	low polyreactivity
QVQLVESGGGLVQGGGSLGLSCAASGRIFPVNAMGWYRQAPGKERELVAAISTTGARTYYADSVKGRFTISRDNAKNTVYLQMNSLKPEDTAVYYCAAKQFSVTLSNYWGQGTQVTVSS	low polyreactivity
QVQLVESGGGLVQGGGSLRLSCAASGINFGLYTMGWYRQAPGKERELVAAISDSGGRTYYADSVKGRFTISRDNAQNTVYLQMNSLKPEDTSVYYCAAEFWYVWEYNYWGQGTQVTVSS	high polyreactivity
QVQLVESGGGLVQGGGSLRLSCAASGNILRIYAMGWYRQAPGKEREFVAAIRQSDGRTYYADSVKGRFTISRDNAKNTVYLQMNSLKPEDTSVYYCAADVYQEYDYWGQGTQVTVSS	high polyreactivity
QVQLVESGGGLVQGGGSLRLSCAASGRTFQTNVMGWYRPAPGKERELVAAITLSGGSTNYADSVKGRFTISRDNAKNTVYVQMNSLKPEDTAVYYCNAERRYRHQWTPHYEYDYWGQGTQVSVSS	low polyreactivity
QVQLVESGGGLVQGGGSLRLSCAASGRTFYWNAMGWYRQAPGKERELVAAIRWRGGNTYYADSVKGRFTISRDIEKNTVYLQMNSLKPEDSAVYYCAAAGGNTEMGYWGQGSQVTVSS	high polyreactivity
